Measurements: patent US20180291110A1 (Hoffmann-La Roche, published 2018)
Numbering of substitutions follows the chain as printed. Blank lines part the entries; values can stand above or below the binder they belong to.

Target: T1, human transferrin receptor (recombinant, for surface plasmon resonance) (human, UniProt P02786 89-760)
T1 construct: also called huTfR; human transferrin receptor-biotinylated
Test: SPR 25C

T1 sequence (P02786 89-760 limits assumed): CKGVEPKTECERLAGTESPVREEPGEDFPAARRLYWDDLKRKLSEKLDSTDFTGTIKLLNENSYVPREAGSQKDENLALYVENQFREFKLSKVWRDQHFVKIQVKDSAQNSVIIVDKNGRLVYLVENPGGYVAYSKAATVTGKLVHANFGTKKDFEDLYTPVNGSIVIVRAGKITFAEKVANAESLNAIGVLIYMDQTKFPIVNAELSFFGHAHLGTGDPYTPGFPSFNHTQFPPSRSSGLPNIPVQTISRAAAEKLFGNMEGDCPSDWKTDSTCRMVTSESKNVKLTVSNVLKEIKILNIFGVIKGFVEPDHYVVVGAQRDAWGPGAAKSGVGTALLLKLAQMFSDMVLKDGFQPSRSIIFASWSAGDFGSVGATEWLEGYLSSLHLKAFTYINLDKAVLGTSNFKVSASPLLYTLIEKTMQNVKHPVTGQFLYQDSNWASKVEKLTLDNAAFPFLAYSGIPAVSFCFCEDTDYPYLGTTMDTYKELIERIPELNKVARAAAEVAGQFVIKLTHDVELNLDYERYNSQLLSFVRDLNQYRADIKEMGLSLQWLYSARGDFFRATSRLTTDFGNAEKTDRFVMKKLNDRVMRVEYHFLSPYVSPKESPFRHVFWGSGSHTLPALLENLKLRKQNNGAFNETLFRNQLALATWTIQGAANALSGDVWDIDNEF

koff: 0.00105 s⁻¹
B3: 2/99 VH17/VL2 (antibody, V domains shown)
VH: QQLQESGPGLVKPSETLSLTCTVSGFSLSSYAMSWVRQPPGKGLEWIGYIWSGGSTDYNPSLKSRVTISKDTSKNQVSLKLSSVTAADTAVYYCARRYGTSYPDYGDANGFDPWGPGTLVTVSS
VL: DIQMTQSPSSLSASVGDRVTITCRASQSISSYLNWYQQKPGKAPKLLIYRASTLASGVPSRFSGSGSGTDFTLTISSLQPEDFATYYCQQSYSSSNVDNTFGGGTKVEIK

koff: 0.00769 s⁻¹
B4: 2/99 VH19/VL2 (antibody, V domains shown)
VH: B3 VH with Q2S, L3M, E15Q, V36I, P39H, N59A, K70V, V77F, P116Q
VL: B3 VL

koff: 0.00525 s⁻¹
B7: 2/99 VH20/VL2 (antibody, V domains shown)
VH: B3 VH with Q2S, L3M, E15Q, V36I, P39H, N59A, K70V, P116Q
VL: B3 VL

koff: 0.00489 s⁻¹
B8: 2/99 VH18/VL2 (antibody, V domains shown)
VH: QVQLQESGPGLVKPSQTLSLTCTVSGFSLSSYAMSWIRQHPGKGLEWIGYIWSGGSTDYAPSLKSRVTISVDTSKNQFSLKLSSVTAADTAVYYCARRYGTSYPDYGDANGFDPWGQGTLVTVSS
VL: B3 VL

koff: 0.001 s⁻¹
B10: 2/99 VH20/VL1 (antibody, V domains shown)
VH: B3 VH with Q2S, L3M, E15Q, V36I, P39H, N59A, K70V, P116Q
VL: B3 VL with T53S, A55Q

koff: 0.001 s⁻¹
B13: 2/99 VH18/VL1 (antibody, V domains shown)
VH: B8 VH
VL: B3 VL with T53S, A55Q

koff: 0.00433 s⁻¹
B16: 2/99 VH17/VL1 (antibody, V domains shown)
VH: B3 VH
VL: B3 VL with T53S, A55Q

koff: 0.00197 s⁻¹
B19: 2/99 VH16/VL2 (antibody, V domains shown)
VH: B3 VH with K70V
VL: B3 VL

koff: 0.00771 s⁻¹
B24: 2/99 VH21/VL1 (antibody, V domains shown)
VH: QSMQESGPGLVKPSQTLSLTCTVSGFSLSSYAMSWIRQHPGKGLEWIGYIWSGGSTDYASWAKSRVTISVDTSKNQVSLKLSSVTAADTAVYYCARRYGTSYPDYGDANGFDPWGQGTLVTVSS
VL: B3 VL with T53S, A55Q

koff: 0.00771 s⁻¹
B30: 2/99 VH16/VL1 (antibody, V domains shown)
VH: B3 VH with K70V
VL: B3 VL with T53S, A55Q

koff: 0.0028 s⁻¹
B33: 2/99 VH23-DANG/VL1 (antibody, V domains shown)
VH: QSMQESGPGLVKPSQTLSLTCTVSGFSLSSYAMSWIRQHPGKGLEWIGYIWSGGSTDYASWAKSRVTISKTSTTVSLKLSSVTAADTAVYYCARRYGTSYPDYGDANGFDPWGQGTLVTVSS
VL: B3 VL with T53S, A55Q

koff: 0.00578 s⁻¹
B34: 2/99 VH22/VL1 (antibody, V domains shown)
VH: B24 VH with I36V
VL: B3 VL with T53S, A55Q

koff: 0.001 s⁻¹
B35: 2/99 VH19/VL1 (antibody, V domains shown)
VH: B24 VH with S60P, W61S, A62L, V77F
VL: B3 VL with T53S, A55Q

Continued, binder first:

B1: 2/99 VH0(rb)/VL0(rb) (antibody, V domains shown)
VH: QSMEESGGRLVTPGTPLTLTCTVSGFSLSSYAMSWVRQAPGKGLEWIGYIWSGGSTDYASWAKGRFTISKTSTTVDLKITSPTTEDTATYFCARRYGTSYPDYGDANGFDPWGPGTLVTVSS
VL: AYDMTQTPASVEVAVGGTVTIKCQASQSISSYLSWYQQKPGQRPKLLIYRASTLASGVSSRFKGSGSGTQFTLTISGVECADAATYYCQQCYSSSNVDNTFGGGTEVVVKR
notes: 0 (rb) read as the rabbit parental domains of clone 2/99
koff: 0.000434 s⁻¹

B2: 2/99 VH1/VL1 (antibody, V domains shown)
VH: VQLVETGGGLIQPGGSLRLSCAASGFSLSSYAMSWVRQAPGKGLEWVGYIWSGGSTDYADSVKGRFTISRDNSKNTLYLQMNSLRAEDTAVYYCARRYGTSYPDYGDANGFDPWGQGTLVTVSS
VL: B3 VL with T53S, A55Q
koff: 0.001 s⁻¹

B5: 2/99 VH13/VL1 (antibody, V domains shown)
VH: B8 VH with Q16E, H40P, A60N, F78V
VL: B3 VL with T53S, A55Q
koff: 0.001 s⁻¹

B6: 2/99 VH9/VL1 (antibody, V domains shown)
VH: B2 VH with V1Q, V4L, T6S, I11V, S27T, L28F, R96K
VL: B3 VL with T53S, A55Q
koff: 0.00694 s⁻¹

B9: 2/99 VH13/VL2 (antibody, V domains shown)
VH: B8 VH with Q16E, H40P, A60N, F78V
VL: B3 VL
koff: 0.00246 s⁻¹

B11: 2/99 VH11/VL2 (antibody, V domains shown)
VH: B2 VH with V1Q, V4L, T6S, I11V
VL: B3 VL
koff: 0.00385 s⁻¹

B12: 2/99 VH5/VL1 (antibody, V domains shown)
VH: B2 VH with V1Q, Q2S, L3M, V4E, Q116P
VL: B3 VL with T53S, A55Q
koff: 0.001 s⁻¹

B14: 2/99 VH5/VL2 (antibody, V domains shown)
VH: B2 VH with V1Q, Q2S, L3M, V4E, Q116P
VL: B3 VL
koff: 0.00241 s⁻¹

B15: 2/99 VH12/VL1 (antibody, V domains shown)
VH: B8 VH with Q16E, H40P, A60N
VL: B3 VL with T53S, A55Q
koff: 0.001 s⁻¹

B17: 2/99 VH6/VL2 (antibody, V domains shown)
VH: B2 VH with V1Q, V47I
VL: B3 VL
koff: 0.00187 s⁻¹

B18: 2/99 VH12/VL2 (antibody, V domains shown)
VH: B8 VH with Q16E, H40P, A60N
VL: B3 VL
koff: 0.00635 s⁻¹

B20: 2/99 VH8/VL1 (antibody, V domains shown)
VH: QQLVETGGGLIQPGGSLRLSCAASGFSLSSYAMSWVRQAPGKGLEWIGYIWSGGSTDYASWAKGRFTISKTSTTLYLQMNSLRAEDTAVYYCARRYGTSYPDYGDANGFDPWGQGTLVTVSS
VL: B3 VL with T53S, A55Q
koff: 0.00319 s⁻¹

B21: 2/99 VH6/VL1 (antibody, V domains shown)
VH: B2 VH with V1Q, V47I
VL: B3 VL with T53S, A55Q
koff: 0.001 s⁻¹

B22: 2/99 VH11/VL1 (antibody, V domains shown)
VH: B2 VH with V1Q, V4L, T6S, I11V
VL: B3 VL with T53S, A55Q
koff: 0.001 s⁻¹

B23: 2/99 VH1/VL2 (antibody, V domains shown)
VH: B2 VH
VL: B3 VL
koff: 0.00286 s⁻¹

B25: 2/99 VH15/VL1 (antibody, V domains shown)
VH: B3 VH with K70V, P116Q
VL: B3 VL with T53S, A55Q
koff: 0.00772 s⁻¹

B26: 2/99 VH7/VL2 (antibody, V domains shown)
VH: B2 VH with V1Q, V47I, D60S, S61W, V62A
VL: B3 VL
koff: 0.00131 s⁻¹

B27: 2/99 VH2/VL1 (antibody, V domains shown)
VH: EVQLVETGGGLIQPGGSLRLSCAASGFSLSSYAMSWVRQAPGKGLEWVGYIWSGGSTDYADSVKGRFTISRDNSKNTLYLQMNSLRAEDTAVYYCARRYGTSYPDYGDANGFDPWGQGTLVTVSS
VL: B3 VL with T53S, A55Q
koff: 0.001 s⁻¹

B28: 2/99 VH2/VL2 (antibody, V domains shown)
VH: B27 VH
VL: B3 VL
koff: 0.00275 s⁻¹

B29: 2/99 VH15/VL2 (antibody, V domains shown)
VH: B3 VH with K70V, P116Q
VL: B3 VL
koff: 0.00216 s⁻¹

B31: 2/99 VH7/VL1 (antibody, V domains shown)
VH: B2 VH with V1Q, V47I, D60S, S61W, V62A
VL: B3 VL with T53S, A55Q
koff: 0.00752 s⁻¹

B32: 2/99 VH8/VL2 (antibody, V domains shown)
VH: B20 VH
VL: B3 VL
koff: 0.00101 s⁻¹
